Measurements reported in PMC8754651 (2021).

B1: human TFIIH p62 PH domain (PH-D) (residues 1–108) (domain or fragment)
chain: MATSSEEVLLIVKKVRQKKQDGALYLMAERIAWAPEGKDRFTISHMYADIKCQKISPEGKAKIQLQLVLHAGDTTNFHFSNESTAVKERDAVKDLLQQLLPKFKRKAN

Tests used:
[1] = molecular target: B1; experiment: ITC
[2] = molecular target: human RPB6 (residues 1–127), full-length (human, UniProt P61218 1-127); experiment: NMR

Binder | Kd [1] | Kd [2]
MSDNEDNFDGDDADDVEEDEGLDD [human RPB6 (residues 1–24) F13A] | 18.1 µM | –
B1 | – | 4.13 µM
